Laboratory results: publication PMC2814116 (Journal of Experimental Botany, 2009)

Target: the molecule itself
Assay: SEC

B1: Recombinant PCNA2 protein of Arabidopsis thaliana (AtPCNA2) (natural protein, UniProt Q9ZW35 1-264, looked up)
chain: MLELRLVQGSLLKKVLEAVKDLVNDANFDCSTTGFSLQAMDSSHVALVSLLLRSEGFEHYRCDRNLSMGMNLGNMSKMLKCAGNDDIITIKADDGSDTVTFMFESPTQDKIADFEMKLMDIDSEHLGIPDAEYHSIVRMPSGEFSRICKDLSSIGDTVVISVTKEGVKFSTAGDIGTANIVLRQNTTVDKPEDAIVIEMNEPVSLSFALRYMNSFTKATPLSETVTISLSSELPVVVEYKVAEMGYIRYYLAPKIEEEEDTKPE
B1: binds.
